Assay results: the nanobody polyreactivity screen of Harvey et al. (2022)

Experiment: yeast display, Sf9 membrane polyspecificity reagent, FACS + sequencing; frameworks hold sequencing errors
In short: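 A nanobody's polyreactivity label depends on the gate it was sorted from. Yeast display cells were stained with 10% biotinylated, detergent-solubilized Sf9 membrane reagent for 1 hour at 4 °C, enriched on streptavidin microbeads and sorted by FACS. The low and high (top ~1%) gates were set on anti-HA fluorescence for expression and streptavidin fluorescence for reagent binding.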

Sequence: QVQLVESGGGLVQAGGSLRLSCAASGFTFIPYAMGWYRQAPGKERELVASITYSGGRTYYADSVKGRFTISRDNAKNTVYLQMNSLKPEDTAVYYCNARSWGGYYHWGQGTQVTVSS
- polyreactivity (PSR sort gate): high polyreactivity

Sequence: QVQLVESGGGLVQAGGSLRLSCAASGFTFIQYDMGWYRLAPGKERELVAAISSSGGSTYYADSVKGRFTISRDNAKNTVYLQMNSLKPEDTAVYNCAADPWVRLEYDYWGQGTQVTVSS
- polyreactivity (PSR sort gate): low polyreactivity

Sequence: QVQLVESGGGLVQAGGSLRLSCAASGFTFIRYAMGCYRQAPGKERELVAAIRGTGTSTYYADSVKGRFTISRDNAKNTVYLQMNSLKPEDTAVYYCNKVAGRSPYTRYDYWGQGTQVTVSS
- polyreactivity (PSR sort gate): low polyreactivity

Sequence: QVQLVESGGGLVQAGGSLRLSCAASGFTFIRYAMGWYRQAPGKERELVASISNRGGRTYYADSVKGRFTISRDNAKNTVYLQMNSLKPEDTAVYYCAAGYSYAQYSYPFLSFAFGYWGQGTQVTVSS
- polyreactivity (PSR sort gate): high polyreactivity

Sequence: QVQLVESGGGLVQAGGSLRLSCAASGFTFIRYAMGWYRQAPGKERELVATISRSGGRTYYADSVKGRFTISRDNAKNTVYLQMNSLKPEDTAVYYCNAEAIVLNGGGYWGQGTQVTVSS
- polyreactivity (PSR sort gate): high polyreactivity

Sequence: QVQLVESGGGLVQAGGSLRLSCAASGFTFISNAMGWYRQAPGKERELVAAISSSGGRTYYADSVKGRFTISRDNAKNTVYLQMNRLKPEDTAVYYCNADRSLLYSRKIEYDYWGQGTQVTVSS
- polyreactivity (PSR sort gate): low polyreactivity

Sequence: QVQLVESGGGLVQAGGSLRLSCAASGFTFIYYAMGWSRQAPGKERELVAAIRWSGGSTYYADSVKGRFTISRDNAKNTVYLQMNSLNPEDTAVYYCAKGGPHRGTGLNDYWGQGTQVTVSS
- polyreactivity (PSR sort gate): high polyreactivity

Sequence: QVQLVESGGGLVQAGGSLRLSCAASGFTFIYYAMGWYRQAPGKERELVAAISKRGGSTYYADSVKGRFTISRDTAKNTVYLQMYSLKPEDTAVYYCAPAFGQRRYDYWGQGTQVTVSS
- polyreactivity (PSR sort gate): high polyreactivity

Sequence: QVQLVESGGGLVQAGGSLRLSCAASGFTFIYYAMGWYRQAPGTERELVAAISTSGDSTYYADSVKGRFTISRDNAKNSVYLQMNSLKPEDTAVYYCNADWYPYLHEYDYWGQGTQVTVSS
- polyreactivity (PSR sort gate): low polyreactivity

Sequence: QVQLVESGGGLVQAGGSLRLSCAASGFTFIYYTMGWYRQAPGKEREFVAAISWGGSTYYADSVKGRFTISRDNAKITVYLLMNSLKPEDTAVYYCNAVSAVAYTRFVYWGQGTQVTVSS
- polyreactivity (PSR sort gate): high polyreactivity

Sequence: QVQLVESGGGLVQAGGSLRLSCAASGFTFKAYAMGWYRQAPGKERELVAAISNSGGTTYYADSVKGRFTISRDNAKNTVYLQMNSLKPEDTAVYYCAAYQYYIPKMYYWGQGTQVTVSS
- polyreactivity (PSR sort gate): high polyreactivity

Sequence: QVQLVESGGGLVQAGGSLRLSCAASGFTFKGNAMGWYRQAPGKESELVAGISRSGRTYYADSVKGRFTISRDNAKNSVYLQMNSLKPEDTAVYYCNARNQGWASLPTMGYWGQGTQVTVSS
- polyreactivity (PSR sort gate): high polyreactivity

Sequence: QVQLVESGGGLVQAGGSLRLSCAASGFTFKNYAMGWYRQAPGKEREFVATISSRGGSTYYADSVKGRFTISRDNAKNTVYLQMNSLKPEDPAVYYCAARYFSYGRSRQRHYYWGQGTQVTVSS
- polyreactivity (PSR sort gate): high polyreactivity

Sequence: QVQLVESGGGLVQAGGSLRLSCAASGFTFKNYAMGWYRQAPGKEREFVATISSRGGSTYYADSVKGRFTISRDNAKNTVYLQMNSLKPEDTAVYYCATSRYLSRSSEYGYWGQGTQVTVSS
- polyreactivity (PSR sort gate): high polyreactivity

Sequence: QVQLVESGGGLVQAGGSLRLSCAASGFTFKQNAMGWYRQAPGKERELVAAISSSGRTNYADSVKGRFTISRDNAKNTVYLQMNSLKPEDTAVYYCAAATYNAYGRRSRYYHGYNSWGQGTQVTVSS
- polyreactivity (PSR sort gate): high polyreactivity

Sequence: QVQLVESGGGLVQAGGSLRLSCAASGFTFKQNAMGWYRQAPGKERELVAAITRTGASTYYADSVKGRFTISRDNAKNTVYLQMNSLKPEDTAVYYCNAARRGSAYDYWGQGTQVTVSS
- polyreactivity (PSR sort gate): high polyreactivity

Sequence: QVQLVESGGGLVQAGGSLRLSCAASGFTFKQYGMGWYRQAPGKERELVASISYRGGSTHYADSVKGRFTISRDNAKNTVYLQMNSLKPEDTAVYYCAARVTSRTSIKGDYWGQGTQVTVSS
- polyreactivity (PSR sort gate): low polyreactivity

Sequence: QVQLVESGGGLVQAGGSLRLSCAASGFTFKRNAMGWYRQAPGKERELVAAISWSGSRTYADSVKGRFTISRDYAKNTVYVQMNSLKPEDTAVYYCAASPGRRRRPYASLIRYDYWGQGTQVTVSS
- polyreactivity (PSR sort gate): high polyreactivity

Sequence: QVQLVESGGGLVQAGGSLRLSCAASGFTFKRYAMGWYRQAPGKERELVAAISWSGGSTYYADSVKGRFTISRDNAKNTVYLQMNSLKPEDTAVYYCAADGGSTEEYYYWGQGTQVTVSS
- polyreactivity (PSR sort gate): high polyreactivity

Sequence: QVQLVESGGGLVQAGGSLRLSCAASGFTFKRYAMGWYRQAPGKERELVAAISYSGGSTYYADSVKGRFTISRDNAKNTVYLQMNSLKPEDTAVYYCAALPGRRLWTYDYWGQGTQVTVSS
- polyreactivity (PSR sort gate): high polyreactivity

Sequence: QVQLVESGGGLVQAGGSLRLSCAASGFTFKRYAMGWYRQAPGKERELVAAISYSGGSTYYADSVKGRYTISRDNAKNTVYLQMNSLKPEVTAVYYCNTGRRYYSYRRDYWGQGTQVTVSS
- polyreactivity (PSR sort gate): high polyreactivity

Sequence: QVQLVESGGGLVQAGGSLRLSCAASGFTFKRYAMGWYRQAPGNERELVAAISYSGGSTYYADSVKWRFTISRDNAKNTVYLQMKSLKPEDTAVYYCAAPRGHGKYYSWGQGTQVTVSS
- polyreactivity (PSR sort gate): high polyreactivity

Sequence: QVQLVESGGGLVQAGGSLRLSCAASGFTFKRYDMGWYRQAPGKERELVAAISWNGGSTYYADSVKGRFTISRDNAKNTVYLQMNSLKPEDTAVYYCAARFAYPPKRYYWGQGTQVTVSS
- polyreactivity (PSR sort gate): high polyreactivity

Sequence: QVQLVESGGGLVQAGGSLRLSCAASGFTFKSNAMGWYRPSPGKERELVAAITWNGGSTYADSEKGRFTISRDNAKNTVYLQMNSLKPEDTAVYYCAARPYPHSAYEGDYWGRGTQVTVSS
- polyreactivity (PSR sort gate): low polyreactivity

Sequence: QVQLVESGGGLVQAGGSLRLSCAASGFTFKWYTMGWYRPAPGKERELVAGISRRGGSTYYADSVKGRFTISRDNAKNTVYLQMNSLKPEDTAVYYCARRFLYPYDHWGQGTQVTVSS
- polyreactivity (PSR sort gate): high polyreactivity

Sequence: QVQLVESGGGLVQAGGSLRLSCAASGFTFKYNAMGWNRQAPGKERELVASISSGSTNYADSVKGRFTISRDNAKNTVYLQMNSLKPEDTAVYYCAASVSRGKRVRYGYLFKMDYWGQGTLVTVSS
- polyreactivity (PSR sort gate): low polyreactivity

Sequence: QVQLVESGGGLVQAGGSLRLSCAASGFTFKYYAMGWYRQAPGKERELVAAINRSGGSTHYADSVKGRFTISRDIAKNTVYLQINSLKPEDTAVYYCAATGRRRTYSEYEYWGQGTQVTVSS
- polyreactivity (PSR sort gate): high polyreactivity

Sequence: QVQLVESGGGLVQAGGSLRLSCAASGFTFKYYAMGWYRQAPGKERELVAGISLIDGSTYYADSVKGRFTISRDNAKNTVYLQMNSLKPEDTAVYSCAKDRAPDGHYGSYDYWGQGTQVTVSS
- polyreactivity (PSR sort gate): low polyreactivity

Sequence: QVQLVESGGGLVQAGGSLRLSCAASGFTFKYYAMGWYRQAPGKERELVASISWDGTRTYYADSVKGRFTISRDNAKNTVYLQMNSLKPEDTAVYDGAAVFLDYRTYSYGYWGQGTQVTVSS
- polyreactivity (PSR sort gate): high polyreactivity

Sequence: QVQLVESGGGLVQAGGSLRLSCAASGFTFKYYAMGWYRQAPGKERELVAVISTRGTNTYYADSVKGRFTISRDNAKNTVYLQMNSLKPEDTAVYYCAAVLGGNSRLDYWGQGTQVTVSS
- polyreactivity (PSR sort gate): high polyreactivity

Sequence: QVQLVESGGGLVQAGGSLRLSCAASGFTFLDNAMGWYRPAPGKERELVAAISGIGGSTSYADSVKGRFTISRDNAKNTVYLQMNSLKPEDTAVYYCATRWQTVGRDTIFAYDYWGQGTQVTVSS
- polyreactivity (PSR sort gate): low polyreactivity

Sequence: QVQLVESGGGLVQAGGSLRLSCAASGFTFLFNTMGWYRQAPGKERELVAGISRGGSTTYADSVKGRFTISRDNAKNTVYLQMNSLKPEDTAVYYCAARTRYNWRGYDYWGQGTQVTVSS
- polyreactivity (PSR sort gate): high polyreactivity

Sequence: QVQLVESGGGLVQAGGSLRLSCAASGFTFLGYAMGWYRQAPGKERELVAAITRGGSTYYADSVKGRFTISRDNAKNTVYLQMNSLKPEDTAVYYCAARARAGGYGYWGQGTQVTVSS
- polyreactivity (PSR sort gate): high polyreactivity

Sequence: QVQLVESGGGLVQAGGSLRLSCAASGFTFLGYDMGWYRQAPGKERELVAAIDYSGGSTYYADSVKGRFTISRDNAKNTVYLQMNSLKPEDTAVYYCAAEYQSGPYTWYEYWGQGTQVTVSS
- polyreactivity (PSR sort gate): high polyreactivity

Sequence: QVQLVESGGGLVQAGGSLRLSCAASGFTFLINAMGWYRQAPGKERELVAAIRSGGSTNYADSVKGRFTISRDNAKNSVYLQMNSLKPEDTAVYYCAARRYYPYKYRYGYWGQGTQVTVSS
- polyreactivity (PSR sort gate): high polyreactivity

Sequence: QVQLVESGGGLVQAGGSLRLSCAASGFTFLRYAMGWYRQAPGKERELVAAITGSGGSTYYADSVKGRFTISRDNAQNTVYLQMNSLKPEDTAVYYCSIVSKFTGDYGYWGQGTQVTVSS
- polyreactivity (PSR sort gate): high polyreactivity

Sequence: QVQLVESGGGLVQAGGSLRLSCAASGFTFLSYTMGWYRQAPGKERELVASITASGTRTYYADSVKGRFTISRDNAKNTVYLQMNRLKPEDTAVYYCAARRSGSGSHDYGYWGQGTQVTVSS
- polyreactivity (PSR sort gate): low polyreactivity

Sequence: QVQLVESGGGLVQAGGSLRLSCAASGFTFLSYTMGWYRQAPGKERELVASITASGTRTYYADSVKGRFTISRDNAKNTVYLQMNRLKPEDTSVYYCAARRSGSGSHDYGYWGQGTQVTVSS
- polyreactivity (PSR sort gate): low polyreactivity

Sequence: QVQLVESGGGLVQAGGSLRLSCAASGFTFLVNTMGWYRQAPGKERELVAATITSTGASTYYADSVKGRFTISRDNAKNTVYLQMNSLKPEDTAVYYCAVDPGGGNYIYYYNEYDYWGQGTQVTVSS
- polyreactivity (PSR sort gate): low polyreactivity

Sequence: QVQLVESGGGLVQAGGSLRLSCAASGFTFLYNAMGWYRQAPGKERELVASINSGGSTNYADSVKGRFTISRDNAKNTVYLQMNSLKPEDTAVYYCAADKGPLQRGFDYWGQGTQVTVSS
- polyreactivity (PSR sort gate): low polyreactivity

Sequence: QVQLVESGGGLVQAGGSLRLSCAASGFTFLYNTMGWYRQAPGKERELVAAISIRGGSTYYADSVKGRFTISRDNAKNTVYLQMNSLKPEETAVYYCAARTPPPSSRSRVYYWGLGTQVTVSS
- polyreactivity (PSR sort gate): high polyreactivity

Sequence: QVQLVESGGGLVQAGGSLRLSCAASGFTFLYYAMGWYRQAPGKERELVAAISASSDRTYYADSVKGRFTISRDNAMNTVYLQMNSLKPDDTAVYYCAAYNSRVGGYRGYGYWGQGTLVTVSS
- polyreactivity (PSR sort gate): high polyreactivity

Sequence: QVQLVESGGGLVQAGGSLRLSCAASGFTFNCYAMGWYRQAPGKERELVARIRWRGSTYYADSVKGRFTISRDNAKNTVYLQMNSLKPEDTAVYYCAARYYTKLYWGQGTQVTVSS
- polyreactivity (PSR sort gate): high polyreactivity
